According to patent US20090191181:

T1: RB1 substrate domain mutant K824A
T1 chain: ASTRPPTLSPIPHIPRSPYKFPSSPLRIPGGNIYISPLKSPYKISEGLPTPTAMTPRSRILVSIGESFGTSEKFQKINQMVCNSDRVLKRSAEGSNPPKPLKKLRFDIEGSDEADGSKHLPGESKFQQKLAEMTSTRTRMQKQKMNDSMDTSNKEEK

T2: RB1 mutant K814A
T2 chain: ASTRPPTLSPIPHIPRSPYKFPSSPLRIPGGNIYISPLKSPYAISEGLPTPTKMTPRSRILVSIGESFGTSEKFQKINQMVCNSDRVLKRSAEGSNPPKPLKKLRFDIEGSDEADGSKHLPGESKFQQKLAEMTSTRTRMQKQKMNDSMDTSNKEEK

T3: RB1 double mutant K814A/K824A
T3 chain: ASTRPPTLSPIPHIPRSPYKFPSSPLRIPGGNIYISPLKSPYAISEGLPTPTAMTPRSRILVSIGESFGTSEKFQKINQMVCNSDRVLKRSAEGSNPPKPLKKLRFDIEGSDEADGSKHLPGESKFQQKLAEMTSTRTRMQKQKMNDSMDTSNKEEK

T4: RB1 substrate domain mutant K896A
T4 chain: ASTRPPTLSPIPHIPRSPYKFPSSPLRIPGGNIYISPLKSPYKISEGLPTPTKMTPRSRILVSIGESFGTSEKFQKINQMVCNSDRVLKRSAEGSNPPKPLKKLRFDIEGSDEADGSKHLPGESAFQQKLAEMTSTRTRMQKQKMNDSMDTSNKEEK

T5: Recombinant C-terminal region of RB1 (codons 769-921)
T5 chain: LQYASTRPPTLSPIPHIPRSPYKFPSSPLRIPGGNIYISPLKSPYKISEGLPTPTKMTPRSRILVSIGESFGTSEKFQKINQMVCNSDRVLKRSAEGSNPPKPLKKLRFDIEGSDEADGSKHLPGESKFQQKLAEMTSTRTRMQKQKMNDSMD

T6: RB1 double mutant K791A/K824A
T6 chain: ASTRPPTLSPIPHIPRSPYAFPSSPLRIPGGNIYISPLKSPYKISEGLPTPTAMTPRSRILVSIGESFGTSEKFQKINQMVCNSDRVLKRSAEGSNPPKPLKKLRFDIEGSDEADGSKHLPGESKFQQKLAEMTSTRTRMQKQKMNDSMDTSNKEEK

T7: RB1 substrate domain mutant K889A
T7 chain: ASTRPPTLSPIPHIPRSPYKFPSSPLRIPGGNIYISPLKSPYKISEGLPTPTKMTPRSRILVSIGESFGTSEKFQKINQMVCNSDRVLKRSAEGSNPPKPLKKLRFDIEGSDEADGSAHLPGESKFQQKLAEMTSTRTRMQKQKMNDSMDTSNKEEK

T8: RB1 mutant K791A
T8 chain: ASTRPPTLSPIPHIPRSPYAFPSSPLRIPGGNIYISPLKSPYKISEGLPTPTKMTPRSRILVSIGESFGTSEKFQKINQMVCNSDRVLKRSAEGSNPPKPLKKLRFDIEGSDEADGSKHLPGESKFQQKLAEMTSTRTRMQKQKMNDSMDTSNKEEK

T9: full-length recombinant RB protein (3108, QED Bioscience)
T9 chain: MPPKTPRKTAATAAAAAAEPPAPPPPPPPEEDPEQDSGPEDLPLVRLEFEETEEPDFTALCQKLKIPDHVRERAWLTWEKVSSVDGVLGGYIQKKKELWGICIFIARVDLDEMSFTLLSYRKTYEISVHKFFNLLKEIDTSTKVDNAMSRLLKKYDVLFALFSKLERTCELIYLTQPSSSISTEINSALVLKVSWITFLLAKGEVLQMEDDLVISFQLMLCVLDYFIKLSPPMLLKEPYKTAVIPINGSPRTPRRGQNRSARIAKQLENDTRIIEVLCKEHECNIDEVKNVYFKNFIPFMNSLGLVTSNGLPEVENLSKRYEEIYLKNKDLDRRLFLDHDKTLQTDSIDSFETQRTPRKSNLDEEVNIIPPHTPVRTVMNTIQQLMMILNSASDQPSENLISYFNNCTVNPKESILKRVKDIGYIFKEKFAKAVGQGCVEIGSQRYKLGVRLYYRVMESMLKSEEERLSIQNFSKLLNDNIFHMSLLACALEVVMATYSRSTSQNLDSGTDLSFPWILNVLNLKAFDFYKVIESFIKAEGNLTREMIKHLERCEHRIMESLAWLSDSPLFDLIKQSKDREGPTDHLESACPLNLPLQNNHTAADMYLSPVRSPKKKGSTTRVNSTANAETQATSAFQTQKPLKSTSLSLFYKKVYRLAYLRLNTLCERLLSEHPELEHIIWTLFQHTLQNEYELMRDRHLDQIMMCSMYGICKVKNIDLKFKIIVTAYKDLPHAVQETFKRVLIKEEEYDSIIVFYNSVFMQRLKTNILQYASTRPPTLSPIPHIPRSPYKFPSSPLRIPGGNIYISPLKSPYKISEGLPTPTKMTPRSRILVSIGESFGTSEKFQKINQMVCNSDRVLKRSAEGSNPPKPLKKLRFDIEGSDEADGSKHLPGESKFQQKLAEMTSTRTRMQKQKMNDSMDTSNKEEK

B1: Recombinant SMYD3 protein (prepared in Sf9 cells, Baculovirus system) (protein)
chain: MEPLKVEKFATANRGNGLRAVTPLRPGELLFRSDPLAYTVCKGSRGVVCDRCLLGKEKLMRCSQCRVAKYCSAKCQKKAWPDHKRECKCLKSCKPRYPPDSVRLLGRVVFKLMDGAPSESEKLYSFYDLESNINKLTEDKKEGLRQLVMTFQHFMREEIQDASQLPPAFDLFEAFAKVICNSFTICNAEMQEVGVGLYPSISLLNHSCDPNCSIVFNGPHLLLRAVRDIEVGEELTICYLDMLMTSEERRKQLRDQYCFECDCFRCQTQDKDADMLTGDEQVWKEVQESLKKIEELKAHWKWEQVLAMCQAIISSNSERLPDINIYQLKVLDCAMDACINLGLLEEALFYGTRTMEPYRIFFPGSHPVRGVQVMKVGKLQLHQGMFPQAMKNLRLAFDIMRVTHGREHSLIEDLILLLEECDANIRAS
B2: Flag-tagged wild-type SMYD3 immunoprecipitated from 293T cells (p3XFLAG-CMV-SMYD3) (protein)
chain: MEPLKVEKFATANRGNGLRAVTPLRPGELLFRSDPLAYTVCKGSRGVVCDRCLLGKEKLMRCSQCRVAKYCSAKCQKKAWPDHKRECKCLKSCKPRYPPDSVRLLGRVVFKLMDGAPSESEKLYSFYDLESNINKLTEDKKEGLRQLVMTFQHFMREEIQDASQLPPAFDLFEAFAKVICNSFTICNAEMQEVGVGLYPSISLLNHSCDPNCSIVFNGPHLLLRAVRDIEVGEELTICYLDMLMTSEERRKQLRDQYCFECDCFRCQTQDKDADMLTGDEQVWKEVQESLKKIEELKAHWKWEQVLAMCQAIISSNSERLPDINIYQLKVLDCAMDACINLGLLEEALFYGTRTMEPYRIFFPGSHPVRGVQVMKVGKLQLHQGMFPQAMKNLRLAFDIMRVTHGREHSLIEDLILLLEECDANIRAS

Columns and labels:
[1] = target: T1, RB1 substrate domain mutant K824A
RB1 mutant K814A = target: T2, RB1 mutant K814A
[2] = target: T3, RB1 double mutant K814A/K824A
[3] = target: T4, RB1 substrate domain mutant K896A
[4] = target: T5, Recombinant C-terminal region of RB1 …
[5] = target: T6, RB1 double mutant K791A/K824A
[6] = target: T7, RB1 substrate domain mutant K889A
RB1 mutant K791A = target: T8, RB1 mutant K791A
[7] = target: T9, full-length recombinant RB protein …
[8] = target: Recombinant full-length GST-p53 (wild-type p53), P04637
Chain of Recombinant full-length GST-p53 (wild-type p53), P04637 (P04637 whole entry, looked up): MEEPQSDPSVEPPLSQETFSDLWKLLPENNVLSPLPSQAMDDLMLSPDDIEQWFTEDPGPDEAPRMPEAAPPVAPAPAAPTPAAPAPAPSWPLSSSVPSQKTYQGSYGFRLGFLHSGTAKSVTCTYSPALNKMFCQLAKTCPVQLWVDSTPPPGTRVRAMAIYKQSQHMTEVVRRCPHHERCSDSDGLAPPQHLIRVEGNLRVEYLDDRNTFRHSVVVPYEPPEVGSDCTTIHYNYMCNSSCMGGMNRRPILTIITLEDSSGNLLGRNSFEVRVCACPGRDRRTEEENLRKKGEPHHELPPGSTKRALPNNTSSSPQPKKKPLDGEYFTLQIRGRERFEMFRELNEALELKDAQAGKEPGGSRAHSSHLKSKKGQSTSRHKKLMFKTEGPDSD

Row | Protein | methylation by SMYD3 (autoradiography, liquid scintillation counter) [1] | methylation by SMYD3 (fluorogram, liquid scintillation counter) (RB1 mutant K814A) | methylation by SMYD3 (fluorogram, liquid scintillation counter) [2] | methylation by SMYD3 (autoradiography, liquid scintillation counter) [3] | methyltransferase (MTase) activity (recombinant histone H3) | incorporation of 3H-labeled methyl donor (liquid scintillation counter) [4] | methylation by SMYD3 (fluorogram, liquid scintillation counter) [5] | methylation by SMYD3 (autoradiography, liquid scintillation counter) [6] | methylation by SMYD3 (fluorogram, liquid scintillation counter) (RB1 mutant K791A) | methylation of substrate (in vitro MTase assay) [7] | methylation of substrate (in vitro MTase assay with 3H-labeled SAM, PAGE and autoradiography) [8] | methylation of substrate (in vitro MTase assay with 3H-labeled SAM, PAGE and autoradiography) (recombinant histone H3) | methylation of substrate (in vitro MTase assay with 3H-labeled SAM, PAGE and autoradiography) [4]
1 | B1 | methylation of K824A was significantly decreased | K791A and K814A, showed similar levels of methylation to wild type-RB1 | showed equivalent levels of methylation to the K824A protein | the K889A and K896A mutants were methylated at similar levels by SMYD3 | a dose-dependent increase of MTase activity on both substrates | four to six fold higher amount of 3H-labeled methyl donor in the presence of SMYD3 than the absence of SMYD3 | showed equivalent levels of methylation to the K824A protein | the K889A and K896A mutants were methylated at similar levels by SMYD3 | K791A and K814A, showed similar levels of methylation to wild type-RB1 | – | – | – | –
2 | B2 | – | – | – | – | – | – | – | – | – | SMYD3 methylated full length of RB1 | no bands corresponding to methylated p53 were detected | bands corresponding methylated histone H3 | bands corresponding to methylated RB1 were also detected
